Read-outs that look alike come from different tables or passages of the source. Blank lines part the entries; values can stand above or below the binder they belong to.
Key:
[1] = biological target: T1, hB7-H4 (soluble human B7-H4, construct not named) (human, UniProt Q7Z7D3 25-259, limits assumed); experiment: ELISA, hB7-H4
T1 construct: also called soluble hB7-H4
T1 sequence: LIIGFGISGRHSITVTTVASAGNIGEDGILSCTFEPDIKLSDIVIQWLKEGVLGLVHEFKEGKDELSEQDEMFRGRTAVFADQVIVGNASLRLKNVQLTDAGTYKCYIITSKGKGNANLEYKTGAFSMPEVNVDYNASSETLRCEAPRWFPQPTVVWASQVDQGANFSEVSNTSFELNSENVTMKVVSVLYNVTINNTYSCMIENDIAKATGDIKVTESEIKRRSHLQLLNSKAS
In short: (§1)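 Human or mouse B7-H4-Fc (or His-tagged) at about 1-2 μg/ml was coated overnight at 4° C and blocked with 3% milk. Serially diluted antibodies were added for 1-1.5 h at RT and detected with HRP anti-human Fab and TMB, reading OD450. EC50 was obtained from the OD450 vs. concentration curve.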

[2] = biological target: T2, IgV domain of mouse B7-H4-Fc (mouse; human); experiment: ELISA, coated mB7-H4 IgV domain
T2 construct: also called mB7-H4 IgV domain
Experimental: (§2) About 1-2 μg/ml of human or mouse B7-H4-Fc (or his-tagged) was immobilized on ELISA plates (Immuno 2HB, Thermo scientific, cat #3455) at 4° C. overnight. After blocking the plates with 3% PBS+milk, serial diluted antibodies were added to the blocked plates and incubated at RT for 1-1.5 h. After washing the plates with PBS-T (0.05%), horse radish peroxidase (HRP)-conjugated antibody targeting the hFab was added to the plate. Signals were developed by adding 3,3′,5,5′-Tetramethylbenzidine (TMB (followed 1N of H₂SO₄ to stop the reaction. The OD at 450 nm was read by ELISA plate reader (Infinite M1000 from TECAN). GraphPad from Prism was used to plot OD450 vs. antibody concentration curve and to calculate the EC50 values.

[3] = biological target: T1, hB7-H4 (soluble human B7-H4, construct …); experiment: SPR (Biacore)
In short: (§3)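 Ligands (human B7-H4-Fc, human B7-H4-his, mouse B7-H4-Fc) were amine-coupled to CM5 chips at 50-100 RU. Analyte was injected at 100 nM to 0.1 nM in HBS-EP, pH 7.4, at 25 °C, with 180 s association and 1000 or 1200 s dissociation. Kinetics were fitted to a 1:1 Langmuir model.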

[4] = biological target: T3, IgC domain of human B7-H4-Fc (human); experiment: ELISA, coated hB7-H4 IgC domain (title on the sheet: IgC domain of hB7H4)
T3 construct: also called hB7-H4 IgC domain
Experimental: as §2

[5] = biological target: T4, mouse B7-H4 expressed on cells (mouse, UniProt Q7TSP5 25-257); experiment: flow cytometry, CHO cells expressing mB7-H4
T4 construct: also called cellular mB7-H4; mB7-H4/CT26
T4 sequence: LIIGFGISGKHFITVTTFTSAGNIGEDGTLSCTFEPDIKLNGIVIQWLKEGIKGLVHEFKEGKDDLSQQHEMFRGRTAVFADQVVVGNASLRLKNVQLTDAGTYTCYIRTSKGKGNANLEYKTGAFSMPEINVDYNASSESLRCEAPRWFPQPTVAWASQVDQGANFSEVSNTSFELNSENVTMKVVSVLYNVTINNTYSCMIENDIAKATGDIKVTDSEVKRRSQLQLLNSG

[6] = biological target: T5, human B7-H4 expressed on cells (human, UniProt Q7Z7D3 25-282); experiment: flow cytometry, SK-BR-3 cells
T5 construct: Transfected CHO cells or tumor cell lines that carry hB7-H4; also called cellular hB7-H4
T5 sequence: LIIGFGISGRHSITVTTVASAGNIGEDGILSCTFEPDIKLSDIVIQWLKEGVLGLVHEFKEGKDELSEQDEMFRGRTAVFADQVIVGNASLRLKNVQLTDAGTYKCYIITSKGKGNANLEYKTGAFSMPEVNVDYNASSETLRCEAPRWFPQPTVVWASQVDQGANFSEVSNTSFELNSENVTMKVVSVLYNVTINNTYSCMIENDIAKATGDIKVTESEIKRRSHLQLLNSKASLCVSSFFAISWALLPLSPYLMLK
In short: (§4)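 Serially diluted antibodies or fusion proteins were incubated with cells at 1×10⁶ cells/ml in ice-cold FACS buffer for 1 h at 4 °C. After three washes, bound protein was detected with a 1:200 secondary antibody, 30 min at 4 °C in the dark, and read by flow cytometry.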

[7] = biological target: T6, IgC domain of mouse B7-H4-Fc (mouse; human); experiment: ELISA, coated mB7-H4 IgC domain (title on the sheet: IgC domain of mB7H4)
T6 construct: also called mB7-H4 IgC domain
Experimental: as §2

mouse B7-H4-his [8] = biological target: T7, mouse B7-H4-his (mouse, UniProt Q7TSP5 25-257); experiment: ELISA, coated mB7-H4-his
T7 construct: also called mB7-H4-his; mB7-H4-His; not shown: his tag
T7 sequence: T4 sequence
Experimental: as §2

[9] = biological target: T8, mB7-H4 (soluble mouse B7-H4, construct not named) (mouse, UniProt Q7TSP5 25-257, limits assumed); experiment: ELISA and SPR (Biacore)
T8 sequence: T4 sequence
Experimental: as §2
(§5) Surface plasmon resonance experiments were performed using a Biacore T200 instrument equipped with CM5 sensor chips. The system was equilibrated in running buffer HBS-EP pH 7.4. The ligands were immobilized using amine-coupling chemistry. The surfaces of flow cells one through four were activated for 5 min using an amine coupling kit at a flow rate of […]. The ligands (human B7-H4-Fc, human B7-H4-hism and mouse B7-H4-Fc; at a concentration of 5 μg/ml in 10 mM sodium acetate, pH 5.0) were immobilized at a density of 50-100 RU on flow cell 2, 3, 4 respectively. Flow cell 1 was left blank to serve as a reference surface. All flow cell surfaces were blocked with a 5 min injection of 1 M ethanolamine, pH 8.0. To collect kinetic binding data, the respective analyte (diluted in 1×HBS-EP buffer, pH 7.4) was injected over the four flow cells at concentrations of 100 nM to 0.1 nM at a flow rate of […] and at a temperature of 25° C. The protein complex was allowed to associate and dissociate for 180 seconds and 1000 or 1200 seconds, respectively. The surfaces were regenerated with a 30 second injection of 1.5 M NaCl/0.05 M NaOH. The data were fit to a simple 1:1 interaction model using the Langmuir fit option available within the Biaevaluaton software

mouse B7-H4-Fc [10] = biological target: T9, mouse B7-H4-Fc (mouse; human); experiment: ELISA, coated mB7-H4-Fc
T9 construct: also called mB7-H4-Fc; mB7-H4-hFc
Experimental: (§6) ELISA experiments were performed to determine binding to hB7-H4-Fc (FIG. 3A), hB7-H4-his (FIG. 3B), mB7-H4-Fc (FIG. 3C), and hB7-H4 IgV domain (FIG. 3D). Flow cytometry experiments were performed to determine binding to CHO cells expressing hB7-H4 (FIG. 3E) or mB7-H4 (FIG. 3F).
as §2

human B7-H4-his [11] = biological target: T10, human B7-H4-his (human, UniProt Q7Z7D3 25-259); experiment: SPR (Biacore)
T10 construct: also called hB7-H4-his; hB7-H4 his; not shown: his tag
T10 sequence: T1 sequence
Experimental: as §5
(§7) The kinetics for binding of the different antibodies to their targets were examined using Biacore analysis.

human B7-H4-Fc = biological target: T11, human B7-H4-Fc (human); experiment: SPR (Biacore)
T11 construct: also called hB7-H4-Fc; hB7-H4 Fc
Experimental: as §5, §7

[12] = biological target: T4, mouse B7-H4 expressed on cells; experiment: flow cytometry, CHO cells expressing mB7-H4; remark: listed apart in the source
Experimental: as §6
Cells were harvested, washed once, and then re-suspended to the concentration of 1×10⁶ cells/ml in ice cold FACS Buffer. 25 μl of cell suspension was added to each well of a 96-well round-bottom microliter plate. Serially diluted antibodies or fusion proteins were added to each well and incubated for 1 hour at 4° C. Cells were washed three times by centrifugation at 1500 rpm for 5 minutes, and then stained with secondary antibody (1:200 dilution) for 30 min at 4° C. in the dark. Cells were washed once, re-suspended in 100 μl PBS buffer and then analyzed using Guava Flow Cytometry EasyCyte system.

[13] = biological target: T1, hB7-H4 (soluble human B7-H4, construct …); experiment: ELISA, hB7-H4; remark: listed apart in the source
Experimental: as §2

mouse B7-H4-Fc [14] = biological target: T9, mouse B7-H4-Fc; experiment: ELISA, coated mB7-H4-Fc; remark: listed apart in the source
In short: as §1

[15] = biological target: T4, mouse B7-H4 expressed on cells; experiment: flow cytometry, mB7-H4/CT26 cells
[16] = biological target: T5, human B7-H4 expressed on cells; experiment: flow cytometry, SK-BR-3 cells; remark: listed apart in the source
mouse B7-H4-his [17] = biological target: T7, mouse B7-H4-his; experiment: ELISA, coated mB7-H4-his (title on the sheet: Binding to mB7H4-his)
Experimental: as §2

[18] = biological target: T8, mB7-H4 (soluble mouse B7-H4, construct …); experiment: SPR (Biacore)
In short: as §3

[19] = biological target: T4, mouse B7-H4 expressed on cells; experiment: flow cytometry, mB7-H4/CT26 cells; remark: listed apart in the source
In short: as §4

[20] = biological target: T1, hB7-H4 (soluble human B7-H4, construct …); experiment: SPR (Biacore); remark: listed apart in the source
[21] = biological target: T8, mB7-H4 (soluble mouse B7-H4, construct …); experiment: ELISA, mB7-H4
Experimental: as §2

[22] = biological target: T8, mB7-H4 (soluble mouse B7-H4, construct …); experiment: SPR (Biacore); values equal to Table 11
[23] = biological target: T8, mB7-H4 (soluble mouse B7-H4, construct …); experiment: ELISA, mB7-H4; remark: listed apart in the source
In short: as §1

[24] = biological target: T12, IgV domain of human B7-H4-Fc (human); experiment: ELISA, coated hB7-H4 IgV domain
T12 construct: also called hB7-H4 IgV domain

human B7-H4-his [25] = biological target: T10, human B7-H4-his; experiment: ELISA, coated hB7-H4-his
Experimental: as §2

[26] = biological target: T2, IgV domain of mouse B7-H4-Fc; experiment: ELISA, coated mB7-H4 IgV domain; remark: listed apart in the source
[27] = biological target: T3, IgC domain of human B7-H4-Fc; experiment: ELISA, coated hB7-H4 IgC domain

T2 sequence (chain, as listed by the source): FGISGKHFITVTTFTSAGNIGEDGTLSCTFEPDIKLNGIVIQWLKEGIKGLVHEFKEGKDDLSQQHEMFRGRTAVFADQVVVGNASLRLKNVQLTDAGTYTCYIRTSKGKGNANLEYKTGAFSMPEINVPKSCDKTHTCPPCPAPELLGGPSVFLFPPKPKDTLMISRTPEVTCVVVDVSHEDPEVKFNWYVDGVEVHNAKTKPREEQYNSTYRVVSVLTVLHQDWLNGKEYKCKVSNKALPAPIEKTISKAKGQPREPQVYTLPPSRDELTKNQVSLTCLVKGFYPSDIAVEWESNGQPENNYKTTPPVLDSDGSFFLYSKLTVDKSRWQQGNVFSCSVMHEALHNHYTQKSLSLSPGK
T9 sequence (chain, as listed by the source): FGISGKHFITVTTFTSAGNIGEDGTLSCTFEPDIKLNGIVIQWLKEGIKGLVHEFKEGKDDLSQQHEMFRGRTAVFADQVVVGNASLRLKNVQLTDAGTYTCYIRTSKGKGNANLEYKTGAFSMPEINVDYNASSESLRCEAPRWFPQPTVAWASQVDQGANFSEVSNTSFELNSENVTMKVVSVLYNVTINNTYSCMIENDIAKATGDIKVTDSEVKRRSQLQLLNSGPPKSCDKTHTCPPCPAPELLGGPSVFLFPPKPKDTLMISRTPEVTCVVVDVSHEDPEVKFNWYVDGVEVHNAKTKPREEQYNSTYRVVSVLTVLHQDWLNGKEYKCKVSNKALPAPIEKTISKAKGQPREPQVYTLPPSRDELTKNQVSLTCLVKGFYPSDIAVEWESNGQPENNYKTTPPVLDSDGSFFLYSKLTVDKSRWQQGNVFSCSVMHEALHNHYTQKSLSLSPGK
T3 sequence (chain, as listed by the source): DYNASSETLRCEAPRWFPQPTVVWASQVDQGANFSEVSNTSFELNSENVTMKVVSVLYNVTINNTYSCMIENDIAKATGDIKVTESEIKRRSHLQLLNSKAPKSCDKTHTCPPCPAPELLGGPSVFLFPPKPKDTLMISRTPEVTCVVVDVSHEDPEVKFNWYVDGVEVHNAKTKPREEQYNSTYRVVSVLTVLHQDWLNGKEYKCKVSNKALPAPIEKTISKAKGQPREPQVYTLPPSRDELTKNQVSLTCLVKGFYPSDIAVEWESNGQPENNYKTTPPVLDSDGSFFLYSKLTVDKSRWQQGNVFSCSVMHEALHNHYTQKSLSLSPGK
T6 sequence (chain, as listed by the source): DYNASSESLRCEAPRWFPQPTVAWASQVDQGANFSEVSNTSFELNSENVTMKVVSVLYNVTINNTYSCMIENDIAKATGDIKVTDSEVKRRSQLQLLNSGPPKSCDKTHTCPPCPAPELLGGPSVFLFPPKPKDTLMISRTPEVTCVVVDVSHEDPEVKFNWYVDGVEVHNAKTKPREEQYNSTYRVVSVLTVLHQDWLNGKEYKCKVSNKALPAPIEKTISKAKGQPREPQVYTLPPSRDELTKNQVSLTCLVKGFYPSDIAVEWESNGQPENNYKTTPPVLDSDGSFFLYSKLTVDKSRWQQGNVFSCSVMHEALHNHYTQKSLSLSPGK
T11 sequence (chain, as listed by the source): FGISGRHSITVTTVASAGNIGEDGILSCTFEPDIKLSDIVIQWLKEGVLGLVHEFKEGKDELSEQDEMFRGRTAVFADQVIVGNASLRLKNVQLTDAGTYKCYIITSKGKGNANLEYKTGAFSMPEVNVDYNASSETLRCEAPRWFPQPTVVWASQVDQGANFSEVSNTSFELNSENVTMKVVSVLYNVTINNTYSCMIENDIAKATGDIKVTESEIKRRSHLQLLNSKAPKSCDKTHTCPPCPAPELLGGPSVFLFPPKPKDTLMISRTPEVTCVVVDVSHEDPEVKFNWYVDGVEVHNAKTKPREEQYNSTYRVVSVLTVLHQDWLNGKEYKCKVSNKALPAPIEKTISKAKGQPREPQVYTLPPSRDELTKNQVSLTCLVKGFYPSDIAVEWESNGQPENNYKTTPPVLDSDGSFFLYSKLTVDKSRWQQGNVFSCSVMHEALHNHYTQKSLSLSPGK
T12 sequence (chain, as listed by the source): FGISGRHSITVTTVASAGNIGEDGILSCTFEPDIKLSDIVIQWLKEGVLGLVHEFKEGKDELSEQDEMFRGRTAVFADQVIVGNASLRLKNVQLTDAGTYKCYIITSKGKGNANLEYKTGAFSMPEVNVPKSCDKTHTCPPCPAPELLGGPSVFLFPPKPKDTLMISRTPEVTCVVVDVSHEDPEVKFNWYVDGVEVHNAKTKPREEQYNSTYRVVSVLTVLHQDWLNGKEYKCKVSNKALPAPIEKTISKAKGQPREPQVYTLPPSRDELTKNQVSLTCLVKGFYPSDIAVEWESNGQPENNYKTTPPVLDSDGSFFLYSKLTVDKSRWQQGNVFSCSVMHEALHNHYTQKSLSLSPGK

EC50 [1]: 0.056 nM
Kd [3]: 0.015 nM
EC50 (read off the curve) [5]: ~8 nM
EC50 [6]: 0.79 nM
B1: 3F2/49A2 (antibody, human IgG1, V domains shown)
VH: QVQLVQSGAEVKKPGASVKVSCKASGYTFTAQYMYWVRQAPGQGLEWMGRINPTSGNTVYAQKLQGRVTMTRDTSTSTVYMELSSLRSEDTAVYYCARGINWFDPWGQGTLVTVSS
VL: DIQMTQSPSSLSASVGDRVTITCRASQNIDTYVNWYQQKPGKAPKLLIYAASRLHTVPSRFSGSGSGTDFTLTISSLQPEDFATYYCQQSYTSPFTFGGGTKVEIK
notes: 3F2 VH with 49A2 VL
binding result [2]: no binding (tested: axis value -8 (labelled log nM))
binding result [4]: no binding (tested: axis value -8 (labelled log nM))
binding result [7]: no binding (tested: axis value -8 (labelled log nM))

EC50 [1]: 0.048 nM
binding result [9]: no binding
Kd [3]: 0.0819 nM
Kd (human B7-H4-his [11]): 0.0849 nM
Kd (human B7-H4-Fc): 0.0951 nM
EC50 [6]: 0.84 nM
B2: 3F2/3F2 (antibody, human IgG1, V domains shown)
VH: B1 VH
VL: not shown
binding result [2]: no binding (tested: axis value -8 (labelled log nM))
binding result (mouse B7-H4-his [8]): no binding (tested: axis value -8 (labelled log nM))
binding result (mouse B7-H4-Fc [10]): no binding (tested: axis value -8 (log scale labelled nM))
binding result [12]: no binding (tested: axis value -7 (log scale labelled nM))
binding result [7]: no binding (tested: axis value -8 (labelled log nM))

EC50 [13]: 0.105 nM
binding result (mouse B7-H4-Fc [14]): binds
EC50 [1]: 0.778 nM
EC50 [15]: 9.41 nM
EC50 [16]: 3.53 nM
EC50 (read off the curve) (mouse B7-H4-his [17]): ~0.1 nM
Kd [3]: 7.15 nM
Kd [18]: 5.96 nM
EC50 [19]: 31.8 nM
Kd [20]: 2.96 nM
EC50 [21]: 0.144 nM
Kd [22]: 2.96 nM
EC50 [23]: 0.145 nM
binding result [24]: no binding (tested: log 1 nM (10 nM))
EC50 (read off the curve) (human B7-H4-his [25]): ~0.2 nM
binding result [26]: no binding (tested: log 1 nM (10 nM))
EC50 (read off the curve) [27]: ~0.1 nM
EC50 [6]: 9.53 nM
B3: 9D11/68F5 (antibody, human IgG1, V domains shown)
VH: QVQLVQSGAEVKKPGASVKVSCKASGYTFTSYGISWVRQAPGQGLEWVGVINPNGGTTTYAQTFQGRVTMTRDTSTSTVYMELSSLRSEDTAVYYCARTGYSSGWAFDYWGRGTLVTVSS
VL: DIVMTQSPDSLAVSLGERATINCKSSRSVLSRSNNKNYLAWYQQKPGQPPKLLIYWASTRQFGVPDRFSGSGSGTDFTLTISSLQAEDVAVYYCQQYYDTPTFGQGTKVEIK
notes: 9D11 VH with 68F5 VL
